Test results: the nanobody polyreactivity screen of Harvey et al. (2022)

assay: yeast display, Sf9 membrane polyspecificity reagent, FACS + sequencing; frameworks hold sequencing errors
Summary of the method: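 Synthetic nanobody libraries on Saccharomyces cerevisiae BJ5465 were galactose-induced for 36–48 hours, stained 1 hour at 4 °C with 10% biotinylated, detergent-solubilized Sf9 membrane reagent and enriched on streptavidin microbeads. FACS then separated cells into low and high (top ~1%) gates by anti-HA (expression) and streptavidin (reagent binding) fluorescence. Genes were colony-PCR amplified, MiSeq 2 × 250 sequenced and CDR-length filtered. A clone's polyreactivity label is that of its gate of origin.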

Sequence	polyreactivity (PSR sort gate)
QVQLVESVRGLVHAGGSLRLSCAASGSTFYPYRMGGYRQAPGKEREFVAAITWSGGSTYYADSVKGRFTISRDNAKNTVYLQMNSLKPEDTAVYYCNKDARWYAYNSEYDHWGQGTQVSVSS	low polyreactivity
QVQLVESGGGLVQAGGSLRISCAASGRICWNYALGWYRQAPGKEMELVASISYRGGSTYYADSVKGRVTISRDYAKNTVYLQMNSLKPEDTAVYYCAARSRQARRTDYGYWGQGTQVTVSS	high polyreactivity
QVQLVESGGGLVQAGGSLRISCAASGIIFALYAMGWYRQAPGKERELVAAISWSGDRTYYADSVKGRFTISRDNAKNTVYLQMNSLKPEDTAVYYCAADDYTADAVQRFYYWGQGTQVTVSS	low polyreactivity
QVQLVDTGGGLVQAGGSLRLSCSASGSIFEGYAMGWYRKAPGKERELVARITSDDDSTYYADSVKGRFTISRDKEKNTVYLQMNSLKAEDTAVYYCNADYYWTSLAMDSWGQGTQVTVSS	low polyreactivity
QVQLVESGGGLVQAGGSLRLSCAASGRTIYFYTMGWYRQAPGKERELVATAITSGGCTNYAVSVKGRFTISRDNAKNTVHLLMNSRKPEDTAVYYCAAVPTEFGNRLEYDYWGQGTQVTVSS	low polyreactivity
QVQLVESGGGLVQAGGSLRLSCAASGSTFPYNAMGWYRQAPGKERELVAAITWRAGRTYYADSVKGRFTSSRDNAKNTVYLQMNSLKPEDTAVYYCAKSYQRGVNHYEYWGQGTQVSVSS	high polyreactivity
QVHLVETGGGLVQAGGSLRLSCAASGSIFVSNAKGWYRQAPGKERELVAAISQSGGSTYYADSVKGRFTISRDYAKNTVYLQMNSLKPEDTAVYYCATPIRSGFRIYDYWGQGTQVTVSS	low polyreactivity
QVQLVESGGGLVQAGGSLRLSCAASGSTFPKYGMGWYRQAPGKESEFVARINWNGGGTYYADSVKGRFTISRDNAKNTVYLQMNSLKPEDTAVYYCNARKRGARFILGYDYWGQGTQVTVSS	low polyreactivity
QVQLVESGGGLVQAGGSLRLSCAASGLIFARNAMGWYRQSPGKERELVAAITRGGSTYYADSVKGRFTISRDNAKNTVYLQMNSLKPEDTAVYYCNADYAYNSYGYRFYYWGQGTQVTVSS	high polyreactivity
QVQLVESGGGLVQAGGSLRLSCAASGRTFGLYAMGWYRQAPGKERELVAAIDQSTGSTYYADSVKGRFTISRDNAKNTVYLQMNRLKPEDTAVYYCAAEEASTVRYYWYDYWGQGTQVTVSS	high polyreactivity
QVQLVESGGGLVQAGGSLRLSSAASGFIFSTYAMGWYRQAPGKEREFVAAITRTGTRTYYADSVKGRFTISRDNAKNTVYLQMTSLKPEDTAVYYCAARAGVEAYGSRYGYWGQGTQGTVSS	high polyreactivity
QVQLVESGGGLVQAGGSLRLSCAASGFIFSYYAMGWYRQAPGKEWELVAAISQNVAGTYYADSVKGRFTISRDNAKNTVYLQMNSLKPEDTAVYYCNARPYSGKYYYWGQGTQVTVSS	high polyreactivity
QVQLVESGGGLVQAGGSLRLSCAASGSTFYRYAMGGYRQAPGKERELVASITRGGGRTHYADSVKGRFTISRDNAKNTVYLQMNSLKPEDTAVYYCAAVTPVSYRLYGYWGQGTQVTVSS	high polyreactivity
QVQLVESGGGLVQAGGSLRLSCAASGSTLSKYGMGWYRQAPGKERDLVAAISYSSGSTYYADSVKGRFTISRDNAKNTVYLEMNSLKPEDTAVDYCAADRFRSLHYWTYDYWGQGTQVTVSS	high polyreactivity
QVQLVESGGGLVQAGGSLRLSCAASGFIFAYYAMGWYRQAPGKERELVAAISQIGGRTYYADSVKGRFTISRDNAKNTVYLQMNSLKPEDTAVYYCAKAGAYKYGYWGQGTQVTVSS	high polyreactivity
QVKLVESGGGLVQAGGSLRLSCAAYGLIMGRYAMGWYRQEPGKERELVAAISGSGGSTYYADSVKGRFTISRDNAKNTVYLQMNSLKPEDTAVYYCAADRLRYRDMYYWGQGTQVTVSS	low polyreactivity
QVQLVESGGGLVQAGGSLRLSCAASGRTFKYYTMGWYRQAPGKERELVAGINGGGGSTYYADSVKGRFTISRDNAKNTVYLQMNSMKPEDTAVYYCAVDPFAYFSYWTYDYWGQGTQVTVSS	high polyreactivity
QVQREESGGGLVQAGGSLRLSCAASGSTFDGNSMGWYTQAPGKERELVAAIRKSGGRTYYADSVKGRFTISRDNAKNTVYLQMNSLKPDDTAVYYCAAYERGFTYRRYYWGQGTQVTVSS	high polyreactivity
QVQLVESGGGLVQAGGSLRLSCAASGRIFGWYTMGWYRQAPGKERELVAVISSGGSTNYADSVKGRFTISRDNAKNTVYLQMNSLKPEDTAVYYCAAGGQGGDFGDDYWGQGTQVTVSS	high polyreactivity
QVQLVESGGGLVQAGASLRLSCAASGGIFDLYAMGWYRQAPGKERELVAAITRSGSSTFYADSVKGRFTISRDNAKNTVYLQMNSLKPEDSAVYYCNARYCWYGTYGGDYWGQGTQVTVSS	low polyreactivity

Sequence	polyreactivity (PSR sort gate)
QVQLVESGGGLVQAGGSLRLSCAASGLIFDDYAMGWYRQAPGKERELVAAISWSDGTTYYADSVKGRFTISRDNAKNTVYLQMNSLKPEDTAVYYCAAEEVSGWEYDYWGQGTQVTVSS	high polyreactivity
QVQLVESGGGLVQAGGSLRLSCAASGHFFFYYPLGWYRQAPGKERELVARFTLSGTSTYYADSVKGRFTISRDNAKNSVYLQMNSLKPEDTAVYYCAAPYFTYGQDDDDYWRQGTQVTVSS	low polyreactivity
QVQLVESGGGLVQAGGSLRLSCAASGITFYLNAMGWYRQAPGKDRELVADITVSGGSTYYADSVKGRFTISRDNAKNTVYLQMNSLKPEDTAVYYCAADLTISYSQEYYYWGQGTQVTVSS	low polyreactivity
QVQLVESGGGLVQAGGSLRLSCAPSGGTFALYAMGWYRQAPGKERELVASISFNGGSTYYADSVKGRFTISRDNAKNTVYLQMNSLKPEDTAVYYCNTGYQWGVYESQTAVEDYWGQGTQVTVSS	low polyreactivity
QVQLVESGGGVVQAGGSLRLICAASGLTFDKYTMGRYRQAPGKERELVARISTSGSRTYYADSVKGRFTISRDNAKNTVYLQMNSLIPEDTEVYYCNKDGWIRRRRGYDYWGQGTQVTVSS	high polyreactivity
QGQHVETGGGLVQAGGRLRLSCAASGSTLRDYVMGWSRQAPGKERELVAAITSRVDDTYYADSVKGRFTISRDNAKNTVYLQMNSLKPEDTAVYYCAADSSVTLRIGGYYWFYAFDYWGQGTQVTVSS	low polyreactivity
QVQLVESGGGLVQAGGSLRLSCAASGSIFDLNAMGWYRQAPGKERELVAAISKSGGSTYYADSVKGRFTISRDNAKNTVYLQMNSLKPEDTAVYYCAARYHYPGNWYNYWGQGTQVTVSS	low polyreactivity
QVQLVEARGGLVQAGGSLRLSCAASGSILRYTMGWYRPAPGKERELVAAITRSGTSTYYADSVKGRFTISRDNAKNTVYLQMNSLKPEDTAVYYCAAREKYASHEYDYWGQGTQVTVSS	high polyreactivity
QVQLVESGGGLVQAGGSLRLSCAASGRNIYSNAMGWYRQAPGKERELVAAIRWRDGSTYYADSVKGRFTISRDNAKNTVFLQMNSLKPVDTAVYYCAAVYWGEEYEYWGQGTQVTVSS	low polyreactivity
QVQLVESGGGLVQAGGSLRLSCAASGSTFPDNAMGWYRQAPGKERELVAAISFSSGSTYYADSVKGRFTISRDNAKNTVYLQMNILKPEDTAVYYCAVANPSQYEWIAYYYWGQGTQVTVSS	low polyreactivity
QVQLVESGGGLVQAGGRLRLSCAASGSISQTNAMGWYRKAPGKERELVAAISGSGGSTYADSVKGRFTISRDNAKNTVYLQMNSLKPEDTAVYYCARDRYYTREWYWYRHDHWGQGTQVTVSS	low polyreactivity
QVQLVESGGGLVQAGGTLRLSCAASGRTFLWNDMGWDRQAPGQERELVAAITGSDGTYADSVKGRFTISRDNAKNTVYLQMNSLKPEDNAVYYCAAETYWFFPWKYDYWGQGTQVTVSS	low polyreactivity
QVQLVESGGGIVQAGGSLRLSCAASGRTFWRNTMGWYRQAPGKETELVAAINKPGGSTYYADSVKGRFTISRDNAKNTVYLQMNSLKPEDTAVYYCNALTYQGRHSARYDYWGQGTQVTVSS	high polyreactivity
QVQLVESGGGLVQAGGSLRLSCAASGRIFSYYDMGWYRQAPGKERELVAAITWGGGSTYYADSLKGRFTISRDNAKNTVYLHMNSLKPEDNAVFYSAADWSPSIWEYDYWGQGTEVTVSS	low polyreactivity
QVQLVESGGGLVQAGGSLRLSCAASGFTFYYYAMGWSRQAPGKERELVAAISSAGGRTYYADSVKGRFTISRDNAKNTVYLQMNSLKPEDTAVYYCAATIKAYPTPLLGDYWGQGTQVTVSS	high polyreactivity
QVQLVESGGGLVQAGGSLRLSCAASGSIFESYAMGWYRQAPGKERELVAAIDSGDSTYYADSVKGRFTISRDNAKNTVYLQMNSLKPEDTAVYYCAAGYLFLKRIWQSRMDYWGQGTQVTVSS	low polyreactivity
QVQLVESGGGLVQAGGSLRLSCAASGRTFGRYAMGWYRQAPGKERDLVATITSGGSTNYADSVKGRFTISRDNAKNTVYLQMNSLKPVDTAVYYCAAEFSPSRWAYSEGALRYNYWGHGTQVTVSS	low polyreactivity
QVQLVESGGGLVQAGGSLRLSCAASGNIFSTYAIGWTRQAPGKERELVASISENGGSTYYADSVKGRFTISRDNAKNTVYLQMNSLKPDDTAVYYCAKGQLYSLFFQHDAPYRYGYWGQGTQVTVSS	low polyreactivity
QVQLVESGGGLVQAGGSLRLSCAASGRTFGKNAMGWYRQAPGKERELVAAISTSGGRTYYADSVMGRFTISRDNAKNTVYLQMNSLIPEDPAVYYCAAVLYDTRPVYGCESWGQGTQVTVSS	high polyreactivity
QVQLVESGGGLVQAGGSLRLSCAASGNIVDYYGMGWYIQAPGKERELVAAINVSGDSTYYADSVKGRFTISRDNAKNTVYLQMNSLKPEDTAVYYCAADYGWGSGFEYDYWGQGTQVTVSS	low polyreactivity
